Measurements as given in PMC5577609.

Legend:
[1] = biological target: influenza virus envelope glycoprotein hemagglutinin (influenza virus (strain not stated for the immobilised hemagglutinin)); assay: SPR; Biacore X100; […], HBS-N (10 mM HEPES, 150 mM NaCl, pH 7.4); […], dissociation 600 s; Langmuir 1:1 fit
[2] = biological target: Halimeda renschii lectin HRL40 (Halimeda renschii); assay: SDS-PAGE, non-reducing and reducing; 12% gel; samples heated at 100 C in 0.2% SDS with or without 2% 2-mercaptoethanol; about 40 kDa non-reduced, 10 kDa reduced
[3] = biological target: HRL40-1 (isolectin of Halimeda renschii lectin HRL40) (Halimeda renschii); assay: LC-ESI-MS of the intact and of the reduced, S-pyridylethylated protein; LTQ Orbitrap XL; intact isolectin against the subunit mass derived after reduction with tri-n-butylphosphine and alkylation with 4-vinylpyridine

stoichiometry N [3]	Substance	Ka [1] [M⁻¹]	Kd [1] [nM]	koff [1] [s⁻¹]	kon [1] [M⁻¹ s⁻¹]	stoichiometry N [2]
	Halimeda renschii lectin HRL40 (natural protein)	2.71e+10	0.0369	2.63e-06	71400	4
4	HRL40-1 (isolectin of Halimeda renschii lectin HRL40) (natural protein)					
